Assay results from publication PMC3212630.
Where two headings read alike, the source gives them in different places.

T1: rCsrABb (carbon storage regulator A) (Borrelia burgdorferi, UniProt O51202 1-81)
T1 sequence: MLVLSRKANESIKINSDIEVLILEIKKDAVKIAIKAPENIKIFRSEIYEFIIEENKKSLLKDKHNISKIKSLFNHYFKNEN


What was measured:
[1] = biological target: T1, rCsrABb (carbon storage regulator A); assay: EMSA
[2] = biological target: T1, rCsrABb (carbon storage regulator A); assay: EMSA; remark: listed apart in the source

Row | Binder | binding result [1] | binding result [2]
1 | GCAAAAGGAUUUGCCAAAGUCAGAAUUUAAAUUUUAUCAUGGAGGAAUGA (ssRNA) [flaB leader probe, wild type (P10, flaBp)] | binds | –
2 | GCAAAAAAAUUUGCCAAAGUCAGAAUUUAAAUUUUAUCAUAAAGGAAUGA (ssRNA) [flaB leader probe, BS1 BS2 mutated (P13)] | – | no binding
